# Reference: patent US20180073013A1 (published 2018)
# T1: HPV16 oncoprotein E5 peptide on HLA-B*15:01 (human)
# T1 peptide: TAASAFRCFIVY
# T2: HPV16 oncoprotein E5 peptide on HLA-B*15:01 (human)
# T2 peptide: WITAASAF
# T3: HPV16 oncoprotein E5 peptide on HLA-B*15:01 (human)
# T3 peptide: ITAASAFRCFIVY
# T4: HPV16 oncoprotein E5 peptide on HLA-B*15:01 (human)
# T4 peptide: LLLWITAASAF
# T5: HPV16 oncoprotein E5 peptide on HLA-B*15:01 (human)
# T5 peptide: WITAASAFRCFIVY
# T6: HPV16 oncoprotein E5 peptide on HLA-B*15:01 (human)
# T6 peptide: ASAFRCFIVY
# T7: HPV16 oncoprotein E5 peptide on HLA-B*15:01 (human)
# T7 peptide: AASAFRCFIVY
# T8: HPV16 oncoprotein E5 peptide on HLA-B*15:01 (human)
# T8 peptide: LLWITAASAF
# B1: HPV16 E5-specific TCR (TRAV17 + TRBV6-5) (TCR, V domains shown)
# Valpha: SQQGEEDPQALSIQEGENATMNCSYKTSINNLQWYRQNSGRGLVHLILIRSNEREKHSGRLRVTLDTSKKSSSLLITASRAADTASYFCAESEYGNKLVFGAGTILRVKS
# Vbeta: NAGVTQTPKFQVLKTGQSMTLQCAQDMNHEYMSWYRQDPGMGLRLIHYSVGAGITDQGEVPNGYNVSRSTTEDFPLRLLSAAPSQTSVYFCASSYRQQETQYFGPGTRLLVL
# What was measured:
# Experiment in all cases: cytokine release
# [1] = target: T1, HPV16 oncoprotein E5 peptide on …
# [2] = target: T2, HPV16 oncoprotein E5 peptide on …
# [3] = target: T3, HPV16 oncoprotein E5 peptide on …
# [4] = target: T4, HPV16 oncoprotein E5 peptide on …
# [5] = target: T5, HPV16 oncoprotein E5 peptide on …
# [6] = target: T6, HPV16 oncoprotein E5 peptide on …
# [7] = target: T7, HPV16 oncoprotein E5 peptide on …
# [8] = target: T8, HPV16 oncoprotein E5 peptide on …
binder,measurement,setting,value
B1,binding result,[1],recognises
same,binding result,[2],no recognition
same,binding result,[3],recognises
same,binding result,[4],no recognition
same,binding result,[5],recognises
same,binding result,[6],recognises
same,binding result,[7],recognises
same,binding result,[8],no recognition
